Legend:
Test in all cases: Crosslinking/co-immunoprecipitation/mass spectrometry (TMT quantitative proteomics) to identify irisin receptors
Type in all cases: binding
[1] = molecular target: T1, MLO-Y4 cell surface proteins (Mus musculus, UniProt Q3U1J4); conditions: co-precipitated protein Ddb1 (DDB1_MOUSE)
T1 construct: endogenous in cells; host or cells: MLO-Y4
Description: (§1) MLO-Y4 cells were seeded on 30×150 mm type-I collagen coated dishes as described in cell culture experiment. At 60% cell density, medium was switched to FreeStyle™ 293 Expression medium. After 4 hours incubation, the cells were chilled on ice for 10 minutes, followed by treatment of 10 nM his-tag irisin or his-tag adipsin for 20 minutes. The cells were then incubated with 1.5 mM DTSSP for 30 minutes on ice to do cross-linking, after washing with 15 ml cold PBS twice. The cross-linking was quenched by addition of a final concentration of 20 mM Tris-pH 7.5. The cells were then harvested and homogenized in 1 ml RIPA buffer containing proteaseinhibitor cocktailand phosphatase-inhibitor cocktail. Whole-cell lysates were homogenized by 10 times passages through a 22G needle fitted to a 3 ml syringe. Homogenized samples were rotated gently in cold room for 20 minutes followed by 15,000×g centrifugation for 10 minutes. After addition of a final concentration of 10 mM imidazole, supernatants were incubated with 100 μl Ni-NTA agarose for 1 hour. After centrifugation at 500×g for 1 minute, the supernatants were aspirated and 1 ml cold RIPA buffer containing 10 mM imidazole were added to the agarose. After 10 minutes rotation in cold room, the supernatants were aspirated and 1 ml cold RIPA buffer containing 30 mM imidazole were added to the agarose. After repeating the washing 3 times, 0.8 ml RIPA buffer containing 250 mM imidazole was added and the agarose was gently rotated in a cold room for 20 minutes. After centrifugation at 1000×g for 2 minutes, the supernatants were transferred to 1.5 ml tube and incubated with 100 μl 0.2% sodium deoxycholate and 100 μl 10% trichloroacetic acid in ice for 1 hour. After centrifugation at 12,000×g for 10 minutes at 4° C., the supernatants were removed and 1 ml cold acetone was added to the pellets followed by vortexing for 10 seconds. After one more washing with cold acetone, the pellets were dried at 37° C., and 39 μl PBS and 13 μl 4×NuPAGE LDS were added to the pellets with a final concentration of 5 mM DTT. Solubilized proteins were incubated at 65° C. for 20 minutes followed by incubation with a final concentration of 14 mM iodoacetamide for 45 minutes in the dark. 38 μl samples were loaded to 4-12% gradient SDS-PAGE for separation followed by Coomassie Blue staining. The gels were submitted to quantitative proteomics.
(§2) For in-gel digestions, gels were stained with Coomassie Blue and were excised into 8 equal segments for control and irisin lanes. Gel pieces were destained and dehydrated with 100% acetonitrile, vacuumed dried, and digested in 25 mM HEPES (pH 8.5) with 500 ng sequencing grade trypsin (Promega) and incubated for an overnight at 37° C. (Shevchenko et al. (1996) Anal. Chem. 68:850-858). Digests were treated with 1% formic acid and purified using C18 Stage-Tips as previously described (Rappsilber et al. (2007) Nat. Protoc. 2:1896-1906). Peptides were eluted with 70% acetonitrile and 1% formic acid, then dried using a speedvac. Isobaric labeling of digested peptides was accomplished using 6-plex tandem mass tag (TMT) reagents (Thermo Fisher Scientific, Rockford, Ill.). Reagents, 5.0 mg, were dissolved in 252 μl acetonitrile (ACN) and 5 μl of the solution was added to the digested peptides dissolved in 25 μl of 200 mM HEPES, pH 8.5. After 1 hour at room temperature, the reaction was quenched by adding 1 μl of 5% hydroxylamine. Labeled peptides were combined and acidified prior to C18 Stage-Tips desalting.
(§3) All LC-MS/MS experiments were performed on an Orbitrap Fusion™ Lumos mass spectrometer (Thermo Fisher Scientific, San Jose, Calif., USA) coupled with a Proxeon EASY-nLC™ 1200 LC pump (Thermo Fisher Scientific). Peptides were separated on a 100 μm inner diameter microcapillary column packed with 35 cm of Accucore™ C18 resin (1.8 μm, 100 Å, Thermo Fisher Scientific). […]

[2] = molecular target: T2, MLO-Y4 cell surface proteins (Mus musculus, UniProt P56567); conditions: co-precipitated protein Csta (CYTA_MOUSE)
T2 construct: endogenous in cells; host or cells: MLO-Y4
T2 sequence (P56567 1-97): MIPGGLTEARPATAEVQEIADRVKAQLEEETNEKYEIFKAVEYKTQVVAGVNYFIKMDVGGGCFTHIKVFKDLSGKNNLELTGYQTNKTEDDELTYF
Description: as §1, §2, §3

[3] = molecular target: T3, MLO-Y4 cell surface proteins (Mus musculus, UniProt Q8K221); conditions: co-precipitated protein Arfip2 (ARFP2_MOUSE)
T3 construct: endogenous in cells; host or cells: MLO-Y4
T3 sequence (Q8K221 1-341): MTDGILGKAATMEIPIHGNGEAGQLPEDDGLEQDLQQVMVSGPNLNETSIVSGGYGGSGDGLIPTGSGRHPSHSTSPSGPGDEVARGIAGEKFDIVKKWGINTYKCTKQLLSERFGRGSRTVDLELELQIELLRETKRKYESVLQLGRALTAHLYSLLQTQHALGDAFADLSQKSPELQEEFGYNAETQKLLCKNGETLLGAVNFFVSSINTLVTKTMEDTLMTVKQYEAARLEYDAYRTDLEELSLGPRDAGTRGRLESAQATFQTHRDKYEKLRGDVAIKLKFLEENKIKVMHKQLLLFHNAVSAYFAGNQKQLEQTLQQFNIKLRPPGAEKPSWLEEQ
Description: as §1, §2, §3

[4] = molecular target: T4, MLO-Y4 cell surface proteins (Mus musculus, UniProt C0HKE1); conditions: co-precipitated protein Hist1h2ab (H2A1_MOUSE)
T4 construct: endogenous in cells; host or cells: MLO-Y4
Description: as §1, §2, §3

[5] = molecular target: T5, MLO-Y4 cell surface proteins (Mus musculus, UniProt Q8JZN5); conditions: co-precipitated protein Acad9 (ACAD9_MOUSE)
T5 construct: endogenous in cells; host or cells: MLO-Y4
T5 sequence (Q8JZN5 42-625): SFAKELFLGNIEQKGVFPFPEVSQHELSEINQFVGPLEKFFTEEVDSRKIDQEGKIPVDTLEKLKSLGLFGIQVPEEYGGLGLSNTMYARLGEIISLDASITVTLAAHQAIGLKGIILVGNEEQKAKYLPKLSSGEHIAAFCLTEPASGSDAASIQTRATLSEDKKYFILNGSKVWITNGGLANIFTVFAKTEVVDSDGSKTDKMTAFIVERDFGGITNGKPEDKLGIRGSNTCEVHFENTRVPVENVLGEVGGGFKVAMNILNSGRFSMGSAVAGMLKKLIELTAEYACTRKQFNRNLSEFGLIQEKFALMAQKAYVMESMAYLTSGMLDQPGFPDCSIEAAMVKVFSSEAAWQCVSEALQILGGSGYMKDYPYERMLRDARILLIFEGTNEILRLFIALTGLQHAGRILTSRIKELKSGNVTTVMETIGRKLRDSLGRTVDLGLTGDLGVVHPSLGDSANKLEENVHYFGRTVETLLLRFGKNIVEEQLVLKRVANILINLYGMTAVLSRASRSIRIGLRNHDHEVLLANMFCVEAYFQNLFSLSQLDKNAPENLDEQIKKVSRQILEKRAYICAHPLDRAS
Description: as §1, §2, §3

T1 sequence (Q3U1J4 whole entry): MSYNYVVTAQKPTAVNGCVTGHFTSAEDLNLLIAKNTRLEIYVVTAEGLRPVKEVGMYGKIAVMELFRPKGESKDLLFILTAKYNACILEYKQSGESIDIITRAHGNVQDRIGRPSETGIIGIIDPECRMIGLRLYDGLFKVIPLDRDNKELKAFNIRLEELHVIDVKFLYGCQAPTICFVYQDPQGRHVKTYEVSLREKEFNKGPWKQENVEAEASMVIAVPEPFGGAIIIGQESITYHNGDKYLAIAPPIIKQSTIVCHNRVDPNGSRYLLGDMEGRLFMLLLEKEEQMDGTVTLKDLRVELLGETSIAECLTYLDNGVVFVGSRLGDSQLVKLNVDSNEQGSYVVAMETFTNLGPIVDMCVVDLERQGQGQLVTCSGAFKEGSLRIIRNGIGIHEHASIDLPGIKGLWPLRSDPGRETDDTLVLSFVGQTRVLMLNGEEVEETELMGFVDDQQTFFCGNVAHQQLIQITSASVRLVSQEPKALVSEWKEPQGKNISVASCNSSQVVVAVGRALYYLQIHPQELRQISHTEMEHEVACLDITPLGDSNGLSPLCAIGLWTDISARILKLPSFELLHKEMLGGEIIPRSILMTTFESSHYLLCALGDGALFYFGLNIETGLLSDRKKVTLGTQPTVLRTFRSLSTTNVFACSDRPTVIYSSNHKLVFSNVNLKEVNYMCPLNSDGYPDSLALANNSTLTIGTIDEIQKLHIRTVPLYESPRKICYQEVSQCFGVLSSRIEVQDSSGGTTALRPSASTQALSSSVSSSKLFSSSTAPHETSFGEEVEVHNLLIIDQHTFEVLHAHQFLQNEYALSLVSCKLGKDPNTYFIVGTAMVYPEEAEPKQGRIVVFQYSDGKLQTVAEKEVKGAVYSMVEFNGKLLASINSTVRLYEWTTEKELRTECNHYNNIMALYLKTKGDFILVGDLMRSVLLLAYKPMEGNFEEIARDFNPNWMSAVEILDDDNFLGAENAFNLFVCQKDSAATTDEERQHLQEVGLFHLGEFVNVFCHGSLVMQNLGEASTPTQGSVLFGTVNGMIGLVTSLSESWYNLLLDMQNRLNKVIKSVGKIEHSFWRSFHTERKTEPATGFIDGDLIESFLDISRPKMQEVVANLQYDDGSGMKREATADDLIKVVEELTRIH

TMT signal-to-noise ratio [1]: 426.44 | TMT signal-to-noise ratio [2]: 160.416 | TMT signal-to-noise ratio [3]: 1092.57 | TMT signal-to-noise ratio [4]: 273.934 | TMT signal-to-noise ratio [5]: 127.125
Substance: adipsin

Reference: US20210063414A1, “METHODS FOR PREVENTING AND/OR TREATING BONE LOSS CONDITIONS BY MODULATING IRISIN” (Dana-Farber Cancer Institute, Inc., priority 2018, published 2021)
